# According to publication PMC5056442:
# Target: BamE (E. coli) (UniProt P0A937)
# Assay: SEC + native MS; purified BamABCDE; SDS-PAGE, gel filtration (Superdex200 10/300 GL, TBS with 0.05% DDM, 21 °C) and non-covalent nanoESI-MS named together for the molar ratio
# Chain of UniProt P0A937 (P0A937 20-113): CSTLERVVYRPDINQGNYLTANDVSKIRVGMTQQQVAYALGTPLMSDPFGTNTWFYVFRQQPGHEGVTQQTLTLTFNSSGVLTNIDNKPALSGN
substance,measurement,value
BamB (from UniProt P77774 20-392) (natural protein),stoichiometry N,1 molar ratio
